The source of these data is US20080070791A1 (ZEPHYR PROTEOMIX, published 2008).

The assay deals with T1, α4β1 integrin expressed on Jurkat cells (human, UniProt P13612 34-1032; P05556 21-798).
T1 construct: whole, on cells; Fluorescence-labeled Jurkat cells applied to the microarray; also called receptor recognizing the CS1 peptide
Nature of the assay: cell adhesion of labeled Jurkat cells on microarray.

T1 sequence (P13612 34-1032, chain 1 of 2): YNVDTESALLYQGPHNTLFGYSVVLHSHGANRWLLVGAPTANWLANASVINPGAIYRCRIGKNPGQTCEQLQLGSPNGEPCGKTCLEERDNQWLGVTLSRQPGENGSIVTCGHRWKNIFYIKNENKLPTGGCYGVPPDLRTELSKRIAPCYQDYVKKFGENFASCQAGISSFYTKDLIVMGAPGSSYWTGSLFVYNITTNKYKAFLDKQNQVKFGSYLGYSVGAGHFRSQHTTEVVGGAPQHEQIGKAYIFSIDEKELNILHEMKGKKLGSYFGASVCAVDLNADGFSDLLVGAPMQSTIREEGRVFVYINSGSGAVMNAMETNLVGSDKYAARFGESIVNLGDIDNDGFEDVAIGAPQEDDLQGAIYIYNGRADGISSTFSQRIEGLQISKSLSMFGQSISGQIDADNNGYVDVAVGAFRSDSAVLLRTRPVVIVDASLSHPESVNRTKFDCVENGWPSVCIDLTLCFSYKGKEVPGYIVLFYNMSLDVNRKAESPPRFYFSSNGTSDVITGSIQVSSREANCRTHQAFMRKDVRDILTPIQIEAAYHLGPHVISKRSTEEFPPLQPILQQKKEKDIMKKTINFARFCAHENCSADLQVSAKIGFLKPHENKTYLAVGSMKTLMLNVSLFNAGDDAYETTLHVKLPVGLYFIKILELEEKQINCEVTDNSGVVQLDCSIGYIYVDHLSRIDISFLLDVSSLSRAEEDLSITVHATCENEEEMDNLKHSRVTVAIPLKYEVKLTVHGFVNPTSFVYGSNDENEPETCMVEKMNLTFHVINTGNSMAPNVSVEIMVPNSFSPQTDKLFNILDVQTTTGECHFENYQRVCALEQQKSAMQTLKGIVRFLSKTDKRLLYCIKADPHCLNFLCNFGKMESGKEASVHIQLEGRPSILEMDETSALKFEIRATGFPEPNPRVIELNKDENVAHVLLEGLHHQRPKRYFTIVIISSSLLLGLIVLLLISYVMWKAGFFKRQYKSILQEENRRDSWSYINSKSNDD
T1 sequence (P05556 21-798, chain 2 of 2): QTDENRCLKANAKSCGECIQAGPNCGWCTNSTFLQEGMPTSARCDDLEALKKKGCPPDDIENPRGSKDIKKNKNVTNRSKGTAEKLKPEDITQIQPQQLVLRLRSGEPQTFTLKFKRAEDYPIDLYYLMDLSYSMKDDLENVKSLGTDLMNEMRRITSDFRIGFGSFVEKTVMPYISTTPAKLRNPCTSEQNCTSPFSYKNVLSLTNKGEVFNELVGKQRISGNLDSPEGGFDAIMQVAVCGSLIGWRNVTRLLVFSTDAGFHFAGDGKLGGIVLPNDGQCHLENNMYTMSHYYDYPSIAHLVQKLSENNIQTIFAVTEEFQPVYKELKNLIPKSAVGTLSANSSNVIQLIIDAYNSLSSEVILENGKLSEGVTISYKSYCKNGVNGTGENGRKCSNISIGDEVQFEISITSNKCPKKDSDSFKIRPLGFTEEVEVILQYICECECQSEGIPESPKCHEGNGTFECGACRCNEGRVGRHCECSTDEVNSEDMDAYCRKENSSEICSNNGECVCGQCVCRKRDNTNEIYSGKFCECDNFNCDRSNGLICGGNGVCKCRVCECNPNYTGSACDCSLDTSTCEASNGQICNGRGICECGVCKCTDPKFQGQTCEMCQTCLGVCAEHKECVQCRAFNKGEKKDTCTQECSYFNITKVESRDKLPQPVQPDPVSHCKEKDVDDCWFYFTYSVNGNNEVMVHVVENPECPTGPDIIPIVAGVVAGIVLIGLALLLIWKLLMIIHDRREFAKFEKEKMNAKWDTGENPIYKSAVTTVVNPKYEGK
Method: Jurkat T-cells, a human leukemia line, were grown under the appropriate growing conditions. Shortly before the adherence assay, cells were washed with 5 mM EDTA in Tris-buffered saline (TBS, 10 mM Tris-HCl, pH 7.4, 150 mM NaCl) and then incubated with Cyto 82 (2 μM final concentration) for 30 min under continuous agitation. Labeled cells were washed twice with the same buffer and applied directly on the fabricated microarray slides.
The model of interaction chosen for this purpose was α4β1-CS1-interaction model. α4β1 is an integrin expressed by several types of adherent cells and can mediate cell matrix contact trough the known ligand fibronectin. […] The slides were washed extensively and the interaction was scanned by the microarray scanner (FIG. 12).

B1: recombinant protein comprising the cellulose binding region of SEQ ID NO:4 (other)
chain: NATPTKGATPTNTATPTKSATATPTRPSVPTNTPTNTPANTPVSGNLKVEFYNSNPSDTTNSINPQFKVTNTGSSAIDLSKLTLRYYYTVDGQKDQTFWCDHAAIIGSNGSYNGITSNVKGTFVKMSSSTNNADTYLEISFTGGTLEPGAHVQIQGRFAKNDWSNYTQSNDYSFKSASQFVEWDQVTAYLNGVLVWGKEPGGSVVPSTQPVTTPPATTKPPATTKPPATTIPPSDDPNA
For B1, the binding result was “no binding (tested: highest array concentration)”.
